Peptide text beside a SMILES is read from it. * marks the point of attachment. Biotin = O=C1N[C@H]2[C@H](CS[C@H]2CCCCC(=O)*)N1
How the values were obtained:
Assay in all cases: biochemical
Format in all cases: binding
[1] = biological target: HaloTag[22-297](M2F + K140E)-12xGly/Ser-LgBiT-3xGly/Ser-6xHis (Rhodococcus rhodochrous, UniProt P0A3G2, A155T/A167V/A172T/A224E/C128F/C176G/D78G/E257K/H272N/K175M/K195N/L47V/L88M/N227D/S58T/T264A/Y273L/Y87F); settings: biotinylated peptide on streptavidin probes, PBST, 25° C.
[2] = biological target: HaloTag[22-297](M2F + D53G + K140E)-12xGly/Ser-LgBiT-3xGly/Ser-6xHis (Rhodococcus rhodochrous, UniProt P0A3G2, A155T/A167V/A172T/A224E/C128F/C176G/D73G/D78G/E257K/H272N/K175M/K195N/L47V/L88M/N227D/S58T/T264A/Y273L/Y87F)
LgBiT-6xHis = LgBiT-6xHis (Oplophorus gracilirostris, UniProt Q9GV45, A31E/A60N/A81I/D135N/F58L/F95D/G42A/G62A/G78A/G94A/G98A/H120P/I103V/I117V/I134L/K70R/L176M/L54V/L73R/L99Q/M102E/N171T/P142E/Q151K/Q38E/Q45L/V71I/Y165I)
[3] = biotinylated peptide on streptavidin probes, PBST, 25° C.

Sequence of LgBiT-6xHis (Q9GV45 28-183 with tags or gaps with the stated changes limits assumed): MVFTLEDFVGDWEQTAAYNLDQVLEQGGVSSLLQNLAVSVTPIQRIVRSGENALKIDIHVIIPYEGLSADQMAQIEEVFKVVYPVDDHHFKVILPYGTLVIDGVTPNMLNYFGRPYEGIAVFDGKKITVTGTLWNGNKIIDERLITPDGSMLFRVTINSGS

| Compound | Koff [1] | Kon [1] [M⁻¹ s⁻¹] | further results |
| --- | --- | --- | --- |
| EIGTGFPFDPHYVKVLGGGSGVSVSGWRLFKKIS [HaloTag[3-19](E14K)-4xGly/Ser-VSHiBiT] | NA (dissociation that is too slow for the instrument to measure (limit 10^6 l/s)) | 108000 |  |
| EIKTGFPFDPHYVEVRGGGSGVSVSGWRLFKKIS [HaloTag[3-19](G3K + L16R)-4xGS-VSHiBiT] | NA (dissociation that is too slow for the instrument to measure (limit 10^6 l/s)) | 97100 |  |
| ERGTGFPFDPHYVEVLGGGSGVSVSGWRLFRRIS |  |  | Koff [2, 3]: NA (dissociation that is too slow for the instrument to measure (limit 10^6 l/s)); Kon [2, 3]: 71400 M⁻¹ s⁻¹ |
| ERGTGFPFRPHYVEVLGGGSGVSVSGWRLFKKIS [HaloTag[3-19](I2R + D9R)-4xGS-VSHiBiT] | NA (dissociation that is too slow for the instrument to measure (limit 10^6 l/s)) | 128000 |  |
| CC[C@H](C)[C@H](NC(=O)[C@H](CCCCN)NC(=O)[C@H](CCCCN)NC(=O)[C@H](Cc1ccccc1)NC(=O)[C@H](CC(C)C)NC(=O)[C@H](CCCNC(=N)N)NC(=O)[C@H](Cc1c[nH]c2ccccc12)NC(=O)CNC(=O)[C@H](CO)NC(=O)[C@@H](NC(=O)[C@H](CO)NC(=O)[C@@H](NC(=O)CNC(=O)[C@H](CO)NC(=O)CNC(=O)CNC(=O)CNC(=O)[C@H](CC(C)C)NC(=O)[C@@H](NC(=O)[C@H](CCC(=O)O)NC(=O)[C@@H](NC(=O)[C@H](Cc1ccc(O)cc1)NC(=O)[C@H](Cc1c[nH]cn1)NC(=O)[C@@H]1CCCN1C(=O)[C@H](CC(=O)O)NC(=O)[C@H](Cc1ccccc1)NC(=O)[C@@H]1CCCN1C(=O)[C@H](Cc1ccccc1)NC(=O)CNC(=O)[C@@H](NC(=O)[C@H](CCCCN)NC(=O)[C@H](CCCNC(=N)N)NC(=O)[C@H](CCC(=O)O)NC(=O)CCCC[C@@H]1SC[C@@H]2NC(=O)N[C@@H]21)[C@@H](C)O)C(C)C)C(C)C)C(C)C)C(C)C)C(=O)N[C@@H](CO)C(=O)O [HaloTag[3-19](I2R + G3K)-4xGS-VSHiBiT] (Biotin-ERKTGFPFDPHYVEVLGGGSGVSVSGWRLFKKIS-OH) |  |  | Kd (LgBiT-6xHis): 0.323 nM |
| CC[C@H](C)[C@H](NC(=O)[C@H](CCCCN)NC(=O)[C@H](CCCCN)NC(=O)[C@H](Cc1ccccc1)NC(=O)[C@H](CC(C)C)NC(=O)[C@H](CCCNC(=N)N)NC(=O)[C@H](Cc1c[nH]c2ccccc12)NC(=O)CNC(=O)[C@H](CO)NC(=O)[C@@H](NC(=O)CNC(=O)[C@H](CO)NC(=O)CNC(=O)CNC(=O)CNC(=O)[C@H](CC(C)C)NC(=O)[C@@H](NC(=O)[C@H](CCC(=O)O)NC(=O)[C@@H](NC(=O)[C@H](Cc1ccc(O)cc1)NC(=O)[C@H](Cc1c[nH]cn1)NC(=O)[C@@H]1CCCN1C(=O)[C@H](CC(=O)O)NC(=O)[C@H](Cc1ccccc1)NC(=O)[C@@H]1CCCN1C(=O)[C@H](Cc1ccccc1)NC(=O)CNC(=O)[C@@H](NC(=O)CNC(=O)[C@H](CCCNC(=N)N)NC(=O)[C@H](CCC(=O)O)NC(=O)CCCC[C@@H]1SC[C@@H]2NC(=O)N[C@@H]21)[C@@H](C)O)C(C)C)C(C)C)C(C)C)C(=O)N[C@@H](CO)C(=O)O [HaloTag[3-19](I2R)-4xGly/Ser-HiBiT] (Biotin-ERGTGFPFDPHYVEVLGGGSGVSGWRLFKKIS-OH) |  |  | Kd [2]: 0.323 nM |
| EIGTGFPFDPHYVEVRGGGSGVSVSGWRLFKKIS [HaloTag[3-19](L16R)-4xGly/Ser-VSHiBiT] | NA (dissociation that is too slow for the instrument to measure (limit 10^6 l/s)) | 77900 |  |
| ERGTGFPFDPHYVEVLRGGSGVSVSGWRLFKKIS [HaloTag[3-19](I2R + G17R)-4xGS-VSHiBiT] | NA (dissociation that is too slow for the instrument to measure (limit 10^6 l/s)) | 93300 |  |
| EIKTGFPFDPHYVKVLGGGSGVSVSGWRLFKKIS [HaloTag[3-19](G3K + E14K)-4xGS-VSHiBiT] | NA (dissociation that is too slow for the instrument to measure (limit 10^6 l/s)) | 128000 |  |
| CC[C@H](C)[C@H](NC(=O)[C@H](CCC(=O)O)NC(=O)CCCC[C@@H]1SC[C@@H]2NC(=O)N[C@@H]21)C(=O)NCC(=O)N[C@H](C(=O)NCC(=O)N[C@@H](Cc1ccccc1)C(=O)N1CCC[C@H]1C(=O)N[C@@H](Cc1ccccc1)C(=O)N[C@@H](CCCNC(=N)N)C(=O)N1CCC[C@H]1C(=O)N[C@@H](Cc1c[nH]cn1)C(=O)N[C@@H](Cc1ccc(O)cc1)C(=O)N[C@H](C(=O)N[C@@H](CCC(=O)O)C(=O)N[C@H](C(=O)N[C@@H](CC(C)C)C(=O)NCC(=O)NCC(=O)NCC(=O)N[C@@H](CO)C(=O)NCC(=O)N[C@H](C(=O)N[C@@H](CO)C(=O)N[C@H](C(=O)N[C@@H](CO)C(=O)NCC(=O)N[C@@H](Cc1c[nH]c2ccccc12)C(=O)N[C@@H](CCCNC(=N)N)C(=O)N[C@@H](CC(C)C)C(=O)N[C@@H](Cc1ccccc1)C(=O)N[C@@H](CCCCN)C(=O)N[C@@H](CCCCN)C(=O)N[C@H](C(=O)N[C@@H](CO)C(=O)O)[C@@H](C)CC)C(C)C)C(C)C)C(C)C)C(C)C)[C@@H](C)O [HaloTag[3-19](D9R)-4xGly/Ser-VSHiBiT] (Biotin-EIGTGFPFRPHYVEVLGGGSGVSVSGWRLFKKIS-OH) |  |  | Kd [1]: 0.126 nM |
| CC[C@H](C)[C@H](NC(=O)[C@H](CCCCN)NC(=O)[C@H](CCCCN)NC(=O)[C@H](Cc1ccccc1)NC(=O)[C@H](CC(C)C)NC(=O)[C@H](CCCNC(=N)N)NC(=O)[C@H](Cc1c[nH]c2ccccc12)NC(=O)CNC(=O)[C@H](CO)NC(=O)[C@@H](NC(=O)[C@H](CO)NC(=O)[C@@H](NC(=O)CNC(=O)[C@H](CC(C)C)NC(=O)[C@@H](NC(=O)[C@H](CCC(=O)O)NC(=O)[C@@H](NC(=O)[C@H](Cc1ccc(O)cc1)NC(=O)[C@H](Cc1c[nH]cn1)NC(=O)[C@@H]1CCCN1C(=O)[C@H](CC(=O)O)NC(=O)[C@H](Cc1ccccc1)NC(=O)[C@@H]1CCCN1C(=O)[C@H](Cc1ccccc1)NC(=O)CNC(=O)[C@@H](NC(=O)CNC(=O)[C@H](CCCNC(=N)N)NC(=O)[C@H](CCC(=O)O)NC(=O)CCCC[C@@H]1SC[C@@H]2NC(=O)N[C@@H]21)[C@@H](C)O)C(C)C)C(C)C)C(C)C)C(C)C)C(=O)N[C@@H](CO)C(=O)O [HaloTag[3-19](I2R)-VSHiBiT] (Biotin-ERGTGFPFDPHYVEVLGVSVSGWRLFKKIS-OH) |  |  | Kd [2]: 0.713 nM |
| CC[C@H](C)[C@H](NC(=O)[C@H](CCC(=O)O)NC(=O)CCCC[C@@H]1SC[C@@H]2NC(=O)N[C@@H]21)C(=O)NCC(=O)N[C@H](C(=O)NCC(=O)N[C@@H](Cc1ccccc1)C(=O)N1CCC[C@H]1C(=O)N[C@@H](Cc1ccccc1)C(=O)N[C@@H](CCCNC(=N)N)C(=O)N1CCC[C@H]1C(=O)N[C@@H](Cc1c[nH]cn1)C(=O)N[C@@H](Cc1ccc(O)cc1)C(=O)N[C@H](C(=O)N[C@@H](CCCCN)C(=O)N[C@H](C(=O)N[C@@H](CC(C)C)C(=O)NCC(=O)NCC(=O)NCC(=O)N[C@@H](CO)C(=O)NCC(=O)N[C@H](C(=O)N[C@@H](CO)C(=O)N[C@H](C(=O)N[C@@H](CO)C(=O)NCC(=O)N[C@@H](Cc1c[nH]c2ccccc12)C(=O)N[C@@H](CCCNC(=N)N)C(=O)N[C@@H](CC(C)C)C(=O)N[C@@H](Cc1ccccc1)C(=O)N[C@@H](CCCCN)C(=O)N[C@@H](CCCCN)C(=O)N[C@H](C(=O)N[C@@H](CO)C(=O)O)[C@@H](C)CC)C(C)C)C(C)C)C(C)C)C(C)C)[C@@H](C)O [HaloTag[3-19](D9R + E14K)-4xGS-VSHiBiT] (Biotin-EIGTGFPFRPHYVKVLGGGSGVSVSGWRLFKKIS-OH) |  |  | Kd [1]: 0.111 nM |

Reference: patent US20240368565A1, “COMPLEMENTATION-BASED TAGS AND REPORTERS FOR DUAL-MODALITY LABELING” (Promega Corporation, priority 2023, published 2024)
